B1: GTPase RhebL1 (Homo sapiens), Q8TAI7 (parent)
chain: MPLVRYRKVVILGYRCVGKTSLAHQFVEGEFSEGYDPTVENTYSKIVTLGKDEFHLHLVDTAGQDEYSILPYSFIIGVHGYVLVYSVTSLHSFQVIESLYQKLHEGHGKTRVPVVLVGNKADLSPEREVQAVEGKKLAESWGATFMESSARENQLTQGIFTKVIQEIARVENSYGQERRCHLM

Variants of: B1
Settings: with mtor_human MTOR

Row | Variant | effect of a mutation on the interaction
1 | N41A | disrupting interaction

— IntAct's records for PubMed 16098514
